# The DeepSol protein solubility set
# Experiment: soluble on expression in E. coli; label from the status in PepcDB or PDB records
row,Sequence,soluble on expression in E. coli
1,MRDTFPSLQAQHLHGIDEQALRPAFSTHKPRILILYGSLREVSYSRLLAFEAGRLLERLGCEVRIFDPKGLPLPDETPASHAKVQELRDLSQWSEGQVWVSPERHGAMTGIMKSQIDWIPLAVGSVRPTQGKTLAVMEVSGGSQSFNAVNQMRILGRWMRMITIPNQSSVARAFQEFDEDGRMRPSSYYDRVVDVCEELVKFTLLTRDASAYLTDRYSERKEQAAELEKRVSLKS,not soluble
2,MEVLKVASNSNPNKVAGALAGVIREKGKAELQAIGAGAVNQAVKAIAIARGYLAPSGINLVCVPAFAEVQINGETRTAIKFIVFPKD,not soluble
3,MNMSSEMLPASIESPNVEEKLGTSDGEEERQEPRVDAGAEPISKRQLKKLMKQKQWEEQREQRKEKRKEKRKRKKLERRQLESNSDGNDRKRVRRDVARSSLRLVIDCSFDDLMVLKDIKKLHKQIQRCYAENRRASHPVQFYLTSHGGQLKKNMDENDQGWVNWKDIHIKSEHYSELIKKEDLVYLTSDSPNVLKDLDESKAYVIGGLVDHSHHKGLTFKQATSYGIEHAQLPLADFVKMNSRKVLAVNHVFEIILEFLETRDWQEAFFTILPQRKGAVPAHKACESSPQDHQSLPEGWDSASEGESCRDNPDSPQKDEQGQQSSPVLQ,soluble
4,MSLPAKRKLTMRHIRQMLRLAGSGTSSREIAVMLGIARSTVQDNLKRAAMAGLSWALASGLTDDVLEAKLFVHPGVKRGQRLRQEPDWGPLSIELKKPGVTLLILWEEYRSAHPDGYGYSRFCELFRGFEKRLSPTMRQEHIAGDKVFVDYSGKKVPIVDRKTGEIREAELFLGVLGASSYCTRGRSVHLGELLRRAWIFQHLGNREGHHHHHH,not soluble
5,MKIAIIGAGNMGGSIARGLAKGSLIADSDIIVSNPSAGKLEKLKEEFPGISTTLSNTEAATGADVVILAVKPWFVESVMRELKLKSKQTLVSVAAGISFEELAHFVIAPEMPMFRLIPNTAISELESMTLIAARNTNDEQNLFMLRLFNEMGMAMLIPEDKIAATTALTSCGIAYVLKYIQAAMQAGIEMGIRPKDAMEMVAQSVKGAAALILNNDTHPSVEIDKVTTPGGITIKGINELEHNGFTSAVIKAMKASK,soluble
6,MEKIGETMAKLGQNTRVNSDQLIQTILADPEVASFISQHHLSQEQINLSLSKFNQFLVERQKYQLKDPSYIAKGYQPILAMNEGYADVSYLETKELVEAQKQAAISERIQLVSLPKSYRHIHLSDIDVNNASRMEAFSAILDFVEQYPSAEQKGLYLYGDMGIGKSYLLAAMAHELSEKKGVSTTLLHFPSFAIDVKNAISNGSVKEEIDAVKNVPVLILDDIGAEQATSWVRDEVLQVILQYRMLEELPTFFTSNYSFADLERKWATIKGSDETWQAKRVMERVRYLAREFHLEGANRRLEHHHHHH,soluble
7,MSLTQLQITAFGDPSVLRLNPSLDKVPADGEVRVRICFAGVNPIDAKTRAGLGWAAAQNKDKLPWTPGYDVAGVVEKIGPGVTALAEGDRVCGMVGFPLAAGGYGESVVAREEELVRLEDIGLRQGAALPLAGLTAWQGLFEHGALKAGQRVLILAGAGGVGHLAVQFASAYGAEVVATASRDNHSFLHGLGASRMVDYHDADWVAQVGQVELVLDLVGGESGKAALACVKPGGRLVTVPTISAQQIKDAAAGSAIEVLGMLVHPDRQQLSQMLTLLRQGEVQVTVAGEYALAEGALAHQAIEQGHVRGKLLLRMPAAEGHHHHHH,soluble
8,GPGSTGASLGMMWKDKLNAMTKEEFTRYKRAGVMETDRKEARDYLKRGDGKTGLSVSRGTAKLAWMEERGYVELTGRVVDLGCGRGGWSYYAASRPHVMDVRAYTLGVGGHEVPRITESYGWNIVKFKSRVDIHTLPVERTDVIMCDVGESSPKWSVESERTIKILELLEKWKVKNPSADFVVKVLCPYSVEVMERLSVMQRKWGGGLVRNPYSRNSTHEMYFTSRAGGNIIGAVTACTERLLGRMARRDGPVVVPELNLGTGTR,soluble
9,SNAMPKRSKEDTEITIQKIMDAVVDQLLRLGYDKMSYTTLSQQTGVSRTGISHHFPKKTDFTAALDGRIFKMFIEHLEFEKGLDAFSQSWIKALEDSEFLAILRLLFHHIVTSESAHEFAANGIDRLYKMVESQFGSGGDKELEWLIGRSLIQMSK,soluble
10,MSSSHKSWNSIYEFTVKDINGVDVSLEKYRGHVCLIVNVACKCGATDKNYRQLQEMHTRLVGKGLRILAFPCNQFGGQEPWAEAEIKKFVTEKYGVQFDMFSKIKVNGSDADDLYKFLKSRQHGTLTNNIKWNFSKFLVDRQGQPVKRYSPTTAPYDIEGDIMELLEKK,soluble
11,MTWFIDRRLNGKNKSTVNRQRFLRRYKAQIKQSISEAINKRSVTDVDSGESVSIPTDDISEPMFHQGRGGLRHRVHPGNDHFIQNDRIERPQGGGGGGSGSGQGQASQDGEGQDEFVFQISKDEYLDLLFEDLALPNLKKNQHRQLNEYKTHRAGFTSNGVPANISVVRSLQNSLARRTAMTAGKRRELHALETELETISHSEPAQLLEEERLRREIAELRAKIERVPFIDTFDLRYKNYEKRPEPSSQAVMFCLMDVSGSMDQATKDMAKRFYILLYLFLSRTYKNVEVVYIRHHTQAKEVDEHEFFYSQETGGTIVSSALKLMDEVVKERYDPGQWNIYAAQASDGDNWADDSPLCHEILAKKLLPVVRYYSYIEITRRAHQTLWREYEHLQATFDNFAMQHIRDQEDIYPVFRELFQKQSANQSALEHHHHHH,soluble
12,MGSDKIHHHHHHMGNRRGFLKMSASLAAAPLIPESSAVSNELDIPVSNKRPHELARDEAHWRAVGRLYSIQEEIINLEHGYWGQMSIPVEQALARHTHRVNRELSWYARREYDRDFLKARAAVADALGVSVEELMLTRNATESFVNLITQYDELSSGNAILWADADYPEFKRMMSWLAESRQVRGTMLSLPAAGTDEDYIRIYREAFDALPDLKLMLLTHVSNQHGLVLPVREIAAIAKCRGIHVICDCAQSWGLLDFTLDDLNVDWAVFNLHKWIGSPVGVGALYMRHGTLVPVRPFPGEDSSDTDVANRVHLATSDFASFLTVPDALAFHRAIGGANKQARLNYLREAWVASLEGSSAVEVLGATGSKNASGMGAFRLRGQTSKVQVSALQTRLETEFRIFTVVRNDLASGACIRVTPQVFTPLEHVQALADAIVEISVTG,not soluble
13,MNSPANITDPLVLFMPSGKRGRFPVGTPVLDAARQLGVYVESVCGGRATCGRCQIEVQEGNFAKHKIVSSNDHISPKGPKEERYERVRGLPERRRLSCSAQILGDLVIDVPQDTVINAQTIRKDLEHHHHHH,not soluble
14,MSLTDPNRLTLFYSPQTRATGMRVLLEELGAPYDLHVLNMKAGEQRQPAYLAINPLGKVPAIRRGDALVTEQVAITIYLADLFPGAGLAPSLDDPLRGPYLRWIAYYGSTFEPAVVDRSMQREPGPAEMSPYADYDTMLGALEAQLATGPYLLGDRFTAADVLWGIALNWTLNFGLVPKKDAFVRYAELVTARPAFRRVDLADAEMAAEGHHHHHH,soluble
15,MSLGFHEFSSPYDWSRIASYKRTAKAAFGGMVDLSVGSPVDPVPDSVRKALAVSSNDPNAYGYPVTAGTADLRDAIHEWFAAARNVDLRAIGADAVPTVGSKEGVALMASLLHFGEGDVVVQPKVSYPTYEIGTQLAGAQTLKVDDVADADSWKDVPGVKAVWVNSPCNPTGEVLSAEQMAGIVRAARAIGAVVLSDECYALMQWEDDVAEADADTLASTPCALRADVCGGSAEGVLVLYSLSKQSNMAGYRTALIAGDQSLIGPMAAYRKQIGQIIPGPVQAAMAAGLRDFDAVKTQHSRYQERLGMLVSALRAYGYCTDMPQGALYVWVKAKSGDCWEDLRQLAEIGIVASPGEFYGAPEYLRFSATASDAAIASAAERLAREGHHHHHH,soluble
16,MSLDVINQLPSPEALLEELHRVVSKPIRLMVVCGTHNRAILRYGIREELPDFIELVAGPGCSVCVMPTGHVDAFVKVARQPDVITATCEDLLKVRGSKESLADVLNEGVHRVEIISSPRQALELAYVEEDKIVVYPAVGFEATAPSIAETILEAAQNGVGNFCVIPSIRLLPPTIDALLLDPQLSIQGLLCSDHINTISDTEAYADLARKHSLSCCIAGFEKAEILQGILSMVKQIHRGESMVDASGAMVYSMEETARARRVVEEVFFPTETAWRGLGSIAESGFVIRDELALYDATKRFNVRFAEGTDQCMCHCNEIISGRALPPDCPAFGMACTLQNPVGPCMISNEGICAAYFKYKLESSRFSRLDVEGHHHHHH,soluble
17,MIPQIQTLQRLMKATKAARHTKMVNNLDMPFLASRLFVVPHMLASTKLDIILNALAPRLFAGEKFPIEAYSQGNTEAFRPPETYVVQNNIAIIPVHGTLVRRSAWLGALSGLTSYEGLRASFREAIAQPDVNAVLLDIDSGGGEAGGIFDLVEEFQTLSKQYAKPIWAHANEFACSAAYAIACAASQIWIARTGVVGSIGVVCAHLDQSLADEKQGLKWTFVFEGDHKTHGNSHEPLSDTAQIKMQADCALLYEMFVDWVAKNRPLSADAIRDTKAETFIGIQALELGLADAQGTLAQALEALTDSISQTPTATKEGQNTWHAHNTAPKKMMMKKLSTSSTKTKRTKTRATLMKTSTKTKMRTKINRKA,not soluble
18,MISRPESSLSGLESSQEVQKKTWNPRNYSARLTENIGLPLILLEKHNPWPAYVAYISPAVTRITEKGWARDLEYIYAAEKNGKPVKRSKHSAVLLKRRKPSKPSELMLKETLSETMLPTWECSTIYVSPTFVPEPAQLQMDVREGPTSNYNKIIFSKRPAMRKLPFGLLQASKEMHTKD,soluble
19,MGSDKIHHHHHHAQVTPFTYFNVDWQFNAPISNNFANKASGWGMNFEGGYYVLPDLSIGAFINYHTNNEYISRQTLPISNSAALTTDQQHSVFQLPFGFATHYRFSDGACQPYIGLKLGANYTKMSSDFYIYEVKDNTWGFYVSPEVGVNIYPWTNSIGFHLAAFYSYSTNKGTVFNYDMDKLNNFGFRLGVAF,not soluble
20,MVSIRRSFEAYVDDMNIITVLIPAEQKEIMTPPFRLETEITDFPLAVREEYSLEAKYKYVCVSDHPVTFGKIHCVRASSGHKTDLQIGAVIRTAAFDDEFYYDGELGAVYTADHTVFKVWAPAATSAAVKLSHPNKSGRTFQMTRLEKGVYAVTVTGDLHGYEYLFCICNNSEWMETVDQYAKAVTVNGEKGVVLRPDQMKWTAPLKPFSHPVDAVIYETHLRDFSIHENSGMINKGKYLALTETDTQTANGSSSGLAYVKELGVTHVELLPVNDFAGVDEEKPLDAYNWGYNPLHFFAPEGSYASNPHDPQTRKTELKQMINTLHQHGLRVILDVVFNHVYKRENSPFEKTVPGYFFRHDECGKPSNGTGVGNDIASERRMARKFIADCVVYWLEEYNVDGFRFDLLGILDIDTVLYMKEKATKAKPGILLFGEGWDLATPLPHEQKAALANAPRMPGIGFFNDMFRDAVKGNTFHLKATGFALGNGESAQAVMHGIAGSSGWKALAPIVPEPSQSINYVESHDNHTFWDKMSFALPQENDSRKRSRQRLAVAIILLAQGVPFIHSGQEFFRTKQGVENSYQSSDSINQLDWDRRETFKEDVHYIRRLISLRKAHPAFRLRSAADIQRHLECLTLKEHLIAYRLYDLDEVDEWKDIIVIHHASPDSVEWRLPNDIPYRLLCDPSGFQEDPTEIKKTVAVNGIGTVILYLASDLKSFA,soluble
21,MFDILMYLFENYVHSEVELLVDEDELTKELTRAGFHQSEILKALTWLERLAELQEGDKPYLCNHDQHSFRIYTKDEMEKLDVECRGFLLFLEQVKVLNVETREMVIDRVMELDEPALILEDLKWVILMVLFNAPGHESAYEQMEDLIFEQPEEGRLHS,soluble
